Biological target: TaRAV1 (GST fusion) (Triticum aestivum, UniProt A0A3B6A018 1-392)
Assay: EMSA; LightShift Chemiluminescent EMSA kit (Pierce), manufacturer's protocol; buffer, salt, pH and temperature not given
Details: protein: recombinant; tags: GST; label: biotin

TaRAV1 (GST fusion), sequence (A0A3B6A018 entry or part of it): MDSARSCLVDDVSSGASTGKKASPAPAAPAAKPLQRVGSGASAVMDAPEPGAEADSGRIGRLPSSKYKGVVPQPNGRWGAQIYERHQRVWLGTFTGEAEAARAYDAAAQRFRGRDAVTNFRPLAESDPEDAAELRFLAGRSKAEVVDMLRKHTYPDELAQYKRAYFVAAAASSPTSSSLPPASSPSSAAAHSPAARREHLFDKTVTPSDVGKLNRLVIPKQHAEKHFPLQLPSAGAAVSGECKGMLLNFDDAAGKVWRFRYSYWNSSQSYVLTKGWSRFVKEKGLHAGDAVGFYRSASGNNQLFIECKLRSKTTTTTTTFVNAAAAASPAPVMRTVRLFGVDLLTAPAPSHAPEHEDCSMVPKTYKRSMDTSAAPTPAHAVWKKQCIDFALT

Binder	binding result
probe with mutated CAACA and CACCTG elements (dsDNA) DNA 1: CGGCATGTATAAACAATAGACTCGACGGCATGTATAAACAATAGAC DNA 2: GTCTATTGTTTATACATGCCGTCGAGTCTATTGTTTATACATGCCG	no binding
probe with CAACA and CACCTG elements (dsDNA) DNA 1: CGGCAACAATAAACACCTGACTCGACGGCAACAATAAACACCTGAC DNA 2: GTCAGGTGTTTATTGTTGCCGTCGAGTCAGGTGTTTATTGTTGCCG	binds

From paper PMC9408559, “Genome-Wide Analysis of the RAV Gene Family in Wheat and Functional Identification of TaRAV1 in Salt Stress”
